Numbered stars: 1 amine (or outer) side, 2 acyl side, 3 side chain; on linkers, the order of the positions; unused ones are H or OH. Square brackets hold non-standard residues; d marks the D form. Ends that are not written are not given here. * marks the point of attachment. cDR = (S)-2-((S)-3-(carboxymethyl)-2-oxopiperazin-1-yl)-5-guanidinopentanoic acid, N=C(N)NCCC[C@@H](C(=O)[*:2])N1CCN([*:1])[C@@H](CC(=O)[*:3])C1=O; Bhp = (2S,4R)-4-(benzyloxy)pyrrolidine-2-carboxylic acid, O=C([C@@H]1C[C@@H](OCc2ccccc2)CN1[*:1])[*:2]; ctb = (S)-2-amino-3-(tert-butylthio)propanoic acid, CC(C)(C)SC[C@@H](N[*:1])C(=O)[*:2]; Npl = (S)-4-methyl-2-(propylamino)pentanoic acid, CCCN([C@@H](CC(C)C)C(=O)[*:2])[*:1]; Sni = (S)-nipecotic acid, O=C([C@H]1CCCN([*:1])C1)[*:2]; Phe(4-Cl) = N[C@@H](Cc1ccc(Cl)cc1)C(=O)O; Phe(4-Me) = Cc1ccc(C[C@H](N)C(=O)O)cc1; Hyp = O=C(O)[C@@H]1C[C@@H](O)CN1; NMeF = CN[C@@H](Cc1ccccc1)C(=O)O; dAoc(2) = CCCCCC[C@@H](N)C(=O)O; Aoc(2) = CCCCCC[C@H](N)C(=O)O; NMeL = CN[C@@H](CC(C)C)C(=O)O; dNle = CCCC[C@@H](N)C(=O)O; dOrn = NCCC[C@@H](N)C(=O)O; dNva = CCC[C@@H](N)C(=O)O; dPip = O=C(O)[C@H]1CCCCN1; Octanoyl = CCCCCCCC(=O)*; dAbu = CC[C@@H](N)C(=O)O; dDap = NC[C@@H](N)C(=O)O; Hexanoyl = CCCCCC(=O)*; asn = not defined here; Occ = octanoic acid Where only a bound is given, the exact number is not on record here.

T1: natriuretic peptide receptor-B (human)
T1 chain: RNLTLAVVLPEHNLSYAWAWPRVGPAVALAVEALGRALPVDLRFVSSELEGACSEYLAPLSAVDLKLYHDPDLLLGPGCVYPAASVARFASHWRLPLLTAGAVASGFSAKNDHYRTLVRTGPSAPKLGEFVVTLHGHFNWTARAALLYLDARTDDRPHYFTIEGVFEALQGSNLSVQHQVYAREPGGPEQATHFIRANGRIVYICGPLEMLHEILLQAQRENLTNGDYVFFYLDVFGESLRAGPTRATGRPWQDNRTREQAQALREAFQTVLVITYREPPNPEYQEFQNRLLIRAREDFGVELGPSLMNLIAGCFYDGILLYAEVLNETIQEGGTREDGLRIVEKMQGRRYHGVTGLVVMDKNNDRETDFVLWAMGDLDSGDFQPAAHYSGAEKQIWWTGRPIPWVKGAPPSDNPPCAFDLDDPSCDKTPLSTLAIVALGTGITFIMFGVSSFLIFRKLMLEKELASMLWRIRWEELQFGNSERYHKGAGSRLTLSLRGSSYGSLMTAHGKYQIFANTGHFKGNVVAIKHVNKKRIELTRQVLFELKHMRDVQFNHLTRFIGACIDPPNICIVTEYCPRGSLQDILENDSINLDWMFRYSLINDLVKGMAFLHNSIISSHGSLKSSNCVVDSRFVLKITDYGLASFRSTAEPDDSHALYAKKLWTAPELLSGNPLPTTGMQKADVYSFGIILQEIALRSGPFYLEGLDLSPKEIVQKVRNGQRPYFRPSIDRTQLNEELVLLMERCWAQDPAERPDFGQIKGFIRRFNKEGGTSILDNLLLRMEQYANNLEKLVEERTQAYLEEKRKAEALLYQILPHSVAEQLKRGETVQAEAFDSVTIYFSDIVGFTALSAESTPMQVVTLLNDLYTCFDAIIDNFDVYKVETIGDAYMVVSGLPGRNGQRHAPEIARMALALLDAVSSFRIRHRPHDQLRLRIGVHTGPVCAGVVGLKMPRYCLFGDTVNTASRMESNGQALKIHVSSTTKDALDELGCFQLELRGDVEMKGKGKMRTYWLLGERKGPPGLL

B1: JAL-1016 (peptide)
peptide: [Occ]AFGL[Hyp][NMeL]DRI-NH2
modifications: not fully specified (residue 2); printed as Occ-ala-Phe-Gly-Leu-Hyp-Nml-Asp-Arg-Ile-
B2: JAL-1017 (peptide)
peptide: [Occ]AF[asn]LPLDRI-NH2
modifications: not fully specified (residue 2); printed as Occ-ala-Phe-asn-Leu-Pro-Leu-Asp-Arg-Ile-NH2; reading uncertain

This assay concerns the target T1, natriuretic peptide receptor-B. As to the kind of experiment: cell-based or functional assay.
With Octanoyl-[Sni]F[dL]L[Hyp][NMeL]DRI-NH2 [JAL-1041], the “EC50 group, cGMP in GTM-3 cells” value is not above 1 µM.

Turning to Octanoyl-[dA][Phe(4-Cl)][dL]L[Hyp]LDRI-NH2 [JAL-1050], the “EC50 group, cGMP in GTM-3 cells” value was not above 1 µM.

As for Octanoyl-[dA][Phe(4-Me)][dL]L[Hyp]LDRI-NH2 [JAL-1051], the “EC50 group, cGMP in GTM-3 cells” value was not above 5 µM.

On to Ac-[dAoc(2)][dA][dA]FGLPLDRI-NH2 [JAL-1034], for which the “EC50 group, cGMP in GTM-3 cells” value was not above 5 µM.

On to Octanoyl-[dA]F[dK]L[Hyp][NMeL]DRI-NH2 [JAL-1060], for which the “EC50 group, cGMP in GTM-3 cells” value is not above 1 µM.

Turning to Octanoyl-[Sni]F[dNle]L[Hyp]LDRI-NH2 [JAL-1024], the “EC50 group, cGMP in GTM-3 cells” value is not above 1 µM.

Regarding Octanoyl-[dA]F[dM]LPLDRI-NH2 [JAL-1018], the “EC50 group, cGMP in GTM-3 cells” value was not above 5 µM.

As for Octanoyl-[dA]F[dD]L[Hyp]LDRI-NH2 [JAL-1048], the “EC50 group, cGMP in GTM-3 cells” value is not above 15 µM.

Consider Octanoyl-[dA]F[dL]L[Hyp][NMeL]DRI-NH2 [JAL-1042], for which the “EC50 group, cGMP in GTM-3 cells” value was not above 1 µM.

Take Hexanoyl-G[dA]FGLKLDRISG-NH2 [JAL-0539]: the “EC50 group, cGMP in GTM-3 cells” value was not above 5 µM.

Turning to Ac-[Aoc(2)][dA][dA]FGLPLDRI-NH2 [JAL-1033], the “EC50 group, cGMP in GTM-3 cells” value was not above 5 µM.

With Octanoyl-[dA]FGLPL[cDR]I-NH2 [JAL-1037], the “EC50 group, cGMP in GTM-3 cells” value was not above 15 µM.

Octanoyl-[dA]F[dF]L[Hyp]LDRI-NH2 [JAL-1028]: the “EC50 group, cGMP in GTM-3 cells” value was not above 5 µM.

As to Octanoyl-[dA]F[dNva]L[Hyp]LDRI-NH2 [JAL-1027], the “EC50 group, cGMP in GTM-3 cells” value was not above 5 µM.

Consider Octanoyl-[dA]F[dDap]LPLDRI-NH2 [JAL-1020], for which the “EC50 group, cGMP in GTM-3 cells” value is not above 5 µM.

As for Octanoyl-[dA][NMeF][dR]LP[NMeL]DRI-NH2 [JAL-1076], the “EC50 group, cGMP in GTM-3 cells” value is not above 5 µM.

As to Octanoyl-[dA]F[dR]LPLDRI-NH2 [JAL-1031], the “EC50 group, cGMP in GTM-3 cells” value is not above 5 µM.

As to Octanoyl-[dA]F[dNle]L[Hyp]LDRI-NH2 [JAL-1025], the “EC50 group, cGMP in GTM-3 cells” value is not above 5 µM.

As for Octanoyl-[dPip]FGLPLDRI-NH2 [JAL-1035], the “EC50 group, cGMP in GTM-3 cells” value is not above 15 µM.

On to Octanoyl-[dA]F[dR]L[Hyp]LDRI-NH2 [JAL-1047], for which the “EC50 group, cGMP in GTM-3 cells” value is not above 1 µM.

As for Octanoyl-[dA][NMeF][dL]L[Hyp]LDRI-NH2 [JAL-1052], the “EC50 group, cGMP in GTM-3 cells” value is not above 1 µM.

For Octanoyl-[dA]F[ctb]L[Hyp]LDRI-NH2 [JAL-1029], the “EC50 group, cGMP in GTM-3 cells” value was not above 5 µM.

Octanoyl-[dA]F[dH]LPLDRI-NH2 [JAL-1032]: the “EC50 group, cGMP in GTM-3 cells” value is not above 5 µM.

B1: the “EC50 group, cGMP in GTM-3 cells” value was not above 5 µM.

With Octanoyl-[dA]F[dNle]L[Hyp][NMeL]DRI-NH2 [JAL-1044], the “EC50 group, cGMP in GTM-3 cells” value is not above 1 µM.

Take Octanoyl-[Sni]F[dL]LP[NMeL]DRI-NH2 [JAL-1040]: the “EC50 group, cGMP in GTM-3 cells” value was not above 1 µM.

Octanoyl-[dA]F[dAbu]LPLDRI-NH2 [JAL-1019]: the “EC50 group, cGMP in GTM-3 cells” value was not above 5 µM.

In the case of Octanoyl-[dA]FGLP[Npl]DRI-NH2 [JAL-1045], the “EC50 group, cGMP in GTM-3 cells” value is not above 15 µM.

Octanoyl-[dA]F[dL]LP[NMeL]DRI-NH2 [JAL-1039]: the “EC50 group, cGMP in GTM-3 cells” value is not above 1 µM.

Turning to Octanoyl-[dPip]F[dL]L[Hyp]LDRI-NH2 [JAL-1054], the “EC50 group, cGMP in GTM-3 cells” value is not above 1 µM.

On to Octanoyl-[dA]F[dK]LP[NMeL]DRI-NH2 [JAL-1065], for which the “EC50 group, cGMP in GTM-3 cells” value is not above 5 µM.

Consider Octanoyl-[dA][Phe(4-Cl)][dL]L[Hyp][NMeL]DRI-NH2 [JAL-1043], for which the “EC50 group, cGMP in GTM-3 cells” value is not above 1 µM.

As to Octanoyl-[dA]F[dK]LP[NMeL]ARI-NH2 [JAL-1068], the “EC50 group, cGMP in GTM-3 cells” value was not above 15 µM.

As to Hexanoyl-A[dA]FGLKLDRISA-NH2 [JAL-0536], the “EC50 group, cGMP in GTM-3 cells” value is not above 5 µM.

Octanoyl-[Sni][NMeF][dNle]LPLDRI-NH2 [JAL-1022]: the “EC50 group, cGMP in GTM-3 cells” value is not above 5 µM.

Octanoyl-[dA]F[dL]L[Hyp]LDRI-NH2 [JAL-1026]: the “EC50 group, cGMP in GTM-3 cells” value was not above 5 µM.

Take Octanoyl-[dA]FGL[Bhp]LDRI-NH2 [JAL-1038]: the “EC50 group, cGMP in GTM-3 cells” value is not above 15 µM.

For Hexanoyl-G[dA]FGLKLDRISA-NH2 [JAL-0538], the “EC50 group, cGMP in GTM-3 cells” value is not above 5 µM.

Take Octanoyl-[Sni]F[dNle]LPLDRI-NH2 [JAL-1021]: the “EC50 group, cGMP in GTM-3 cells” value is not above 5 µM.

For Octanoyl-[dA]F[dOrn]L[Hyp][NMeL]DRI-NH2 [JAL-1061], the “EC50 group, cGMP in GTM-3 cells” value was not above 1 µM.

In the case of Octanoyl-[dP]F[dL]L[Hyp]LDRI-NH2 [JAL-1053], the “EC50 group, cGMP in GTM-3 cells” value is not above 1 µM.

For Octanoyl-[dA]F[dR]LP[NMeL]DRI-NH2 [JAL-1075], the “EC50 group, cGMP in GTM-3 cells” value is not above 5 µM.

Regarding Octanoyl-[dA]F[dK]LPLDRI-NH2 [JAL-1030], the “EC50 group, cGMP in GTM-3 cells” value is not above 5 µM.

In the case of B2, the “EC50 group, cGMP in GTM-3 cells” value was not above 5 µM.

Values taken from patent US9187525B2, “Methods of treating ophthalmic diseases using NPR-B agonists” (Shire Orphan Therapies GmbH, dated 2015).
